In paper PMC6798810:
Positions count from the first letter of the chain named.

Legend:
Assay in all cases: EMSA
Settings in all cases: EMSA: 15 ng/uL PCR product, 0.01-0.6 uM His-tagged protein, 45 min; MHQ 30 min, then DTT 30 min; buffer, pH and temperature not given (cited to ref. 44)
[1] = tested on: T1, MhqR (Staphylococcus aureus COL), ORF:0a4449b0
T1 sequence: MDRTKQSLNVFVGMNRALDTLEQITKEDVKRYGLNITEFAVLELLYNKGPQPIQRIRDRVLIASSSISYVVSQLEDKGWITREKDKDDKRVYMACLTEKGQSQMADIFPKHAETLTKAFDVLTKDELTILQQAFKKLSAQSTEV

[2] = tested on: T2, MhqR C95A C95A (Staphylococcus aureus COL), ORF:0a4449b0
T2 sequence: T1 sequence with C95A

[3] = tested on: MhqR (Staphylococcus aureus COL)
[4] = tested on: MhqR C95A (Staphylococcus aureus COL)

For “ACATATCAACTCCTATCATGATTGATTATAGTATTTCCCTATTCTATTTTAACTTAAACGAAGTCAAAGGTGCATGACAGTCATGTGACGACATTGCCACATCTATGTAGTCGTTTTTATTAAGCACAGTTTGAAATGAAGATGAAAACACGTATCTTGACATTAAATCTATTCAGTTATATAATTTATCTCGAAATCGAAATAAAATAAAAAAGTTGGTGATCATATGGATCGAACG (double strand) [PmhqRED promoter probe]”, the Kd [1] was 7.38 nM and the Kd [2] was 14.2 nM.

Substance PmhqRED promoter probe has a Kd [3] of 7.38 nM and a Kd [4] of 14.2 nM.

In the case of “ACATATCAACTCCTATCATGATTGATTATAGTATTTCCCTATTCTATTTTAACTTAAACGAAGTCAAAGGTGCATGACAGTCATGTGACGACATTGCCACATCTATGTAGTCGTTTTTATTAAGCACAGTTTGAAATGAAGATGAAAACACGTATCTTGACATTAAATCTATTCAGTTATATAATTTATCCCTAAATCGAAATAAAATAAAAAAGTTGGTGATCATATGGATCGAACG (double strand) [PmhqRED m1]”, the binding [1] is reported as “no binding”.

With “ACATATCAACTCCTATCATGATTGATTATAGTATTTCCCTATTCTATTTTAACTTAAACGAAGTCAAAGGTGCATGACAGTCATGTGACGACATTGCCACATCTATGTAGTCGTTTTTATTAAGCACAGTTTGAAATGAAGATGAAAACACGTATCTTGACATTAAATCTATTCAGTTATATAATTTATCTCGAAATAGGAATAAAATAAAAAAGTTGGTGATCATATGGATCGAACG (double strand) [PmhqRED m2]” the binding [1] was “no binding”.
